Measurements: patent US20050214822A1 (RUTGERS THE STATE UNIVERSITY OF NEW JERSEY, published 2005)

Biological target: T1, tau (rat, UniProt P19332-5 2-432, limits assumed)
T1 construct: Cytoskeletal protein used as a specificity control in the cypin immunoprecipitates
Assay: immunoprecipitation from rat brain extract with polyclonal anti-cypin antibody
Experimental: Cypin contains a region of homology to CRMP that binds directly to tubulin heterodimers (Akum et al., Nature Neurosci. 7:145 (2004)). To establish that cypin binds to tubulin, affinity chromatography was performed using a GST fusion of rat cypin immobilized on glutathione beads incubated with rat brain extract. The eluate was then assayed for the presence of tubulin. […] To assess whether this interaction occurs in vivo, rat brain extract was subjected to immunoprecipitation with preimmune serum or polyclonal antibody raised against cypin. Tubulin was found in the cypin immunoprecipitates (Id.). Very little tubulin was present when preimmune serum is used, representing nonspecific binding (Id.). Furthermore, no tau was detected in the cypin immunoprecipitates, supporting the idea that cypin binds specifically to tubulin and not all cytoskeletal proteins (Id.). In addition, cypin was found in tubulin immunoprecipitates.

T1 sequence (P19332 other isoform, or with tags, fused parts or gaps limits assumed): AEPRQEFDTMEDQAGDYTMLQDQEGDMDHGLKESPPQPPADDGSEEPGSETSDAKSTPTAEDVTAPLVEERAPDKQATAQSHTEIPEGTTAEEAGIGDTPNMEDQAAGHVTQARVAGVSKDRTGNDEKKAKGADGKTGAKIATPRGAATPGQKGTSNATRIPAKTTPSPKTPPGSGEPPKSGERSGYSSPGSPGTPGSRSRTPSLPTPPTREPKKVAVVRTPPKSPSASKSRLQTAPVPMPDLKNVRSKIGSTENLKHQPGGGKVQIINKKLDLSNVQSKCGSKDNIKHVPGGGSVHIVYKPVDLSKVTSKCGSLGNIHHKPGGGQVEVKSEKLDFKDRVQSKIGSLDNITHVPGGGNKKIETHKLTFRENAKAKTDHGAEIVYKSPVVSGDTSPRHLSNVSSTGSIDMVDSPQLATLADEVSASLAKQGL

B1: cypin in rat brain extract (enzyme)
chain: MCAARTPQLALIFRGTFVHSTWTCPMEVLRDHLLGVSDSGKIVFLEESSQQEKLAKEWCFKPCEIRELSHHEFFMPGLVDTHIHAPQYAFAGSNVDLPLLDWLNKYTFPTEKRFQSTDVAEEVYTRVVRRTLKNGTTTACYFGTIHTDSSLILAEITDKFGQRAFVGKVCMDLNNTVPEYKETTEESVKETERFVSEMLQKNYSRVKPIVTPRFSLSCTETLMSELGNIAKTHDLYIQSHISENREEIEAVKSLYPGYKNYTDVYDKNNLLTNKTVMAHGCYLSEEELNVFSERGASIAHCPNSNLSLSSGLLNVLDVLKHKVKIGLGTDVAGGYSYSMLDAIRRAVMVSNVLLINKVNEKSLTLKEVFRLATLGGSQALGLDREIGNFEVGKDFDALLINPRASDSPIDLFCGDFVGDISEAVIQKFLYLGDDRNIEEVYVGGKQVVPFSSSV
notes: Endogenous cypin immunoprecipitated from rat brain extract with a polyclonal antibody raised against cypin; also called endogenous cypin
binding result: no binding
